Data: publication PMC11722267

Biological target: 5-FAM-labelled VISTA WT peptide (fluorescence polarization probe) (human)
Assay: fluorescence polarisation

Sequence of 5-FAM-labelled VISTA WT peptide (fluorescence polarization probe) (human) (Q9H7M9 232-258): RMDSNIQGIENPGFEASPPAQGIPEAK

Kd: 5.5 µM
Substance: recombinant NUMB PTB domain (domain or fragment)
